The labels stand for the following.
T1: human IL-23 (human, UniProt Q9NPF7 20-189; P29460 23-328)
T1 construct: Bought recombinant heterodimeric cytokine (eBioscience 34-8239-85 for panning; R&D Systems for the splenocyte assay); also called hIL-23; hIL23
T1 sequence (looked up) 1: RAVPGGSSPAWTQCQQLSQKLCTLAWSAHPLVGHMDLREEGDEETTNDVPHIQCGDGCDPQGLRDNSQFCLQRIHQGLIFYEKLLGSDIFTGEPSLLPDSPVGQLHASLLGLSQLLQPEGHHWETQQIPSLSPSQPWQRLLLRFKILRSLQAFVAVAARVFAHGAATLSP
T1 sequence (looked up) 2: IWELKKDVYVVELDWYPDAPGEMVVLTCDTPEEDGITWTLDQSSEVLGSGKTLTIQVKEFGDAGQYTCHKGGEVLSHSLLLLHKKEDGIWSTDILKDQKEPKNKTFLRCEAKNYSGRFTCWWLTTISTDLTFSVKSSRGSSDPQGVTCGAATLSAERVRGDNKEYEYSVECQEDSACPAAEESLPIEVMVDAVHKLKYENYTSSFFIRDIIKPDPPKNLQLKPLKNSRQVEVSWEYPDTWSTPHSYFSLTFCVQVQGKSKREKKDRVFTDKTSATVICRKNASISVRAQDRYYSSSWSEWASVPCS

B1: Cl59m (designed binder)
chain: MSIQQIQKEIAQIQEVIAGIQKWIYMMTGGSGGGSGGGSGGGSGMSIEEIQKQIAAIQKQIAAIQKQIYAMTGGSGGGSGGGSGGGSGMSIEEIQKQITAIKEQIIAIYKQIMAMTP
notes: Rationally designed (in silico matured) variant of Cl59; also called C159m
B2: MA5 (designed binder)
chain: MSIKQIQKEIAQIQEVIAAIQKWIYRMTGGSGGSGGMSIEEIQKQIAAIQCQIAAIQKQIYAMTGSGGGGSGGSGGGGSGMSIEEIQKQIAAIQDQIVAIYKQIMAMSS
B3: MB64 (designed binder)
chain: MSIQQIQKEITQIQAVIAGIQKYIYRMTGGSGGSGGGGSGGSGGMSIEEIQKQIAAIQCQIAAIQKQIYAMTGSGGGGSGMSIEEIQKQIAAIQGQIVAIYKQIMAMAT
B4: MA15 (designed binder)
chain: B3 chain with Q5E, T11A, Q12N, R26T, A91T, G95A, V98I, A108P, T109R
B5: MAcons (designed binder)
single chain Alphabody: B3 chain with T11A, A15E, G19A, Y23W, R26S, G95D, A108S, T109G
notes: also called polypeptide 15
B6: MA9 (designed binder)
chain: B3 chain with Q12T, G19A, Y23W, R26T, V98I, A108K, T109D
B7: MB74 (designed binder)
chain: B3 chain with T11A, Q12T, A15E, V98L, T109I
B8: MB23 (designed binder)
chain: MSIEQIQKEITTIQEVIAAIQKYIYTMTGGSGGSGGMSIEEIQKQIAAIQCQIAAIQKQIYAMTGSGGGGSGMSIEEIQKQIAAIQEQIVAIYKQIMAMAS
notes: 3 for clone 59 (conflict); also called non-PEGylated MB23 Alphabody
B9: MA14 (designed binder)
chain: B8 chain with K8T, T11A, T12S, A19G, T26S, E87N, A100G, S101G
B10: MA23 (designed binder)
chain: B8 chain with E4Q, T11A, T12N, Y23W, T26L, A100P
B11: MB76 (designed binder)
chain: B8 chain with E4Q, T12Q, T26R, G35D, E87G, V90L, A100S, S101L
B12: MB38 (designed binder)
chain: B8 chain with E4Q, Q5E, T11K, T12Q, A19G, T26G, E87N, V90L, A100P, S101Q
B13: Cl59 (designed binder)
chain: MSIEEIQKQIASIQEVIAGIQKWIYMMTGGSGGSGGMSIEEIQKQIAAIQKQIAAIQKQIYAMTGGSGGGGSGMSIEEIQKQITAIKEQIIAIYKQIMAMTP
notes: Non-matured Alphabody from the AC11 library, tested as soluble recombinant protein; also called Clone 59; C159
B14: MB9 (designed binder)
chain: B2 chain with K4Q, A11T, Q12N, R26T, D95N, V98L, S108G
B15: 59m_C2eQ (designed binder)
single chain Alphabody: B1 chain with G34S, S35G, G42S, S43G, K59C, G74S, S75G, G82S, S83G, K102Q
notes: also called design variant; polypeptide 19
B16: 59m_A3cA_A4cS_C2eQ (designed binder)
single chain Alphabody: MSIQQIQKEIAQIQEVIAAIQKWIYSMTGGSGGSGGGGSGGSGGMSIEEIQKQIAAIQCQIAAIQKQIYAMTGSGGGGSGGSGGGGSGMSIEEIQKQITAIQEQIIAIYKQIMAMTP
notes: also called design variant; polypeptide 20
B17: MB23-PEG (designed binder)
chain: B8 chain
modifications: 40 kDa activated maleimide PEG conjugated to the single free thiol group (Cys) of MB23
B18: MB43 (designed binder)
chain: B2 chain with K4E, Q5E, A11K, Q12N, W23Y, R26T, Q87P, V98I, S108T, S109R
B19: MB67 (designed binder)
chain: B2 chain with K4Q, Q5K, A11T, Q12N, W23Y, R26T, D95R, V98L, S109T

Where a chain is given by its changes, count along the chain named.

The target in one assay is T1, human IL-23. Kind of assay: ELISA.
Broadly, the Kd is the concentration at which binding is half-saturated. Molecule B1 registered a dissociation constant Kd of 300 pM.

In the next assay the target is T1, human IL-23. The assay is described as follows: standard equilibrium ELISA. For orientation: ELISA stands for enzyme-linked immunosorbent assay.
Take B2: the “factor better than the non-matured variant C159” value stood at 38 fold.

The target of another assay is T1, human IL-23. The assay is described as follows: cell-based or functional assay.
For the molecule B3, the “functional KD (DB fKD), DB cell assay: Stat3 phosphorylation induced by human IL-23; n data = 2” value (shortened to “functional KD (DB fKD), DB cell assay”) was 460 pM and the “functional KD (Spleno fKD), mouse splenocyte assay: IL-17 production induced by human IL-23; n data = 5” value was determined as 180 pM.

With B4, the “functional KD (DB fKD), DB cell assay” value turned out to be 290 pM and the “functional KD (Spleno fKD), mouse splenocyte assay: IL-17 production induced by human IL-23; n data = 3” value (shortened to “functional KD (Spleno fKD) … n data = 3”) came out at 480 pM.

Turning to B5, the “functional KD (Spleno fKD), mouse splenocyte assay: IL-17 production induced by human IL-23; n data = 1” value (shortened to “functional KD (Spleno fKD) … n data = 1”) came to 4100 pM.

In the case of B6, the “functional KD (DB fKD), DB cell assay” value amounted to 240 pM and the “functional KD (Spleno fKD) … n data = 3” value worked out at 460 pM.

For B7, the “functional KD (Spleno fKD) … n data = 1” value came out at 900 pM.

Regarding B8, the “functional KD (DB fKD), DB cell assay” value is 160 pM.

As to B9, the “functional KD (Spleno fKD) … n data = 1” value stood at 11000 pM.

With B10, the “functional KD (Spleno fKD) … n data = 1” value came to 10000 pM.

With B11, the “functional KD (Spleno fKD) … n data = 1” value was 1700 pM.

With B12, the “functional KD (Spleno fKD) … n data = 3” value is 1010 pM.

Take B13: the “functional KD (Spleno fKD) … n data = 3” value turned out to be 68800 pM.

In the case of B14, the “functional KD (DB fKD), DB cell assay” value was 700 pM.

For the molecule B2, the “functional KD (DB fKD), DB cell assay” value came to 450 pM and the “functional KD (Spleno fKD) … n data = 3” value is 1150 pM.

B15: the “functional KD (Spleno fKD) … n data = 1” value is 1900 pM.

On to B16, for which the “functional KD (Spleno fKD) … n data = 1” value was 700 pM.

As to B1, the “functional KD (DB fKD), DB cell assay” value turned out to be 1730 pM and the “functional KD (Spleno fKD), mouse splenocyte assay: IL-17 production induced by human IL-23; n data = 5” value came to 21700 pM.

Another assay concerns the target T1, human IL-23. The assay is described as follows: cell-based or functional assay. The source holds these as a separate data set.
On to B17, for which the “IC50 (read off the curve), inhibition of Stat3 phosphorylation in DB cells by MB23-PEG pre-incubated with 35 pM hIL23” value was approximately 1 nM.

A further assay concerns the target T1, human IL-23. The assay is described as follows: kinetic ELISA, soluble polypeptide.
The koff is the rate constant with which the complex falls apart. A low value points to slow dissociation. As usually defined, the kon is the rate constant with which the complex forms. The molecule B3 had an equilibrium dissociation constant (Kd) of 300 pM, a koff of 0.00033 s⁻¹ and a kon of 1.1e+06 M⁻¹ s⁻¹.

Regarding B4, binding was characterised by a dissociation constant (Kd) of 90 pM, the koff is 7.2e-05 s⁻¹ and the kon came to 800000 M⁻¹ s⁻¹.

In the case of B5, binding was put at a Kd of 130 pM, the koff was found to be 0.00032 s⁻¹ and the kon turned out to be 2.5e+06 M⁻¹ s⁻¹.

The molecule B6 came in with a dissociation constant (Kd) of 250 pM, an off-rate (koff) of 0.00035 s⁻¹ and a kon of 1.4e+06 M⁻¹ s⁻¹.

In turn, B7 gave a Kd of 250 pM, a koff of 0.00016 s⁻¹ and an on-rate (kon) of 650000 M⁻¹ s⁻¹.

The molecule B8 came in with a Kd of 150 pM, a dissociation rate constant (koff) of 0.00021 s⁻¹ and an on-rate (kon) of 1.5e+06 M⁻¹ s⁻¹.

Molecule B9 came in with a Kd of 2500 pM, a koff of 0.0005 s⁻¹ and a kon of 200000 M⁻¹ s⁻¹.

Regarding B10, the equilibrium dissociation constant (Kd) was found to be 700 pM, the off-rate (koff) turned out to be 0.00032 s⁻¹ and the kon was found to be 450000 M⁻¹ s⁻¹.

B11: the dissociation constant (Kd) came out at 2300 pM, the koff turned out to be 0.00056 s⁻¹ and the kon was determined as 250000 M⁻¹ s⁻¹.

Molecule B12 had a Kd of 210 pM, an off-rate constant (koff) of 0.00022 s⁻¹ and a kon of 1e+06 M⁻¹ s⁻¹.

B13 registered a dissociation rate constant (koff) of 0.0007 s⁻¹ and a kon of 100000 M⁻¹ s⁻¹.

In turn, B14 registered a Kd of 130 pM, an off-rate (koff) of 0.00025 s⁻¹ and a kon of 1.9e+06 M⁻¹ s⁻¹.

B18 came in with a dissociation constant (Kd) of 110 pM, a dissociation rate constant (koff) of 0.00014 s⁻¹ and a kon of 1.3e+06 M⁻¹ s⁻¹.

Regarding B2, binding was put at a Kd of 30 pM, the koff worked out at 0.00016 s⁻¹ and the kon was found to be 4.5e+06 M⁻¹ s⁻¹.

B19 had a Kd of 140 pM, a koff of 0.00022 s⁻¹ and a kon of 1.6e+06 M⁻¹ s⁻¹.

Consider B15, for which the dissociation constant Kd worked out at 3900 pM, the koff came to 0.00043 s⁻¹ and the on-rate constant (kon) was 110000 M⁻¹ s⁻¹.

As to B16, the affinity, expressed as Kd, was 750 pM; the koff was 0.00026 s⁻¹; the on-rate constant (kon) is 350000 M⁻¹ s⁻¹.

The target in the next assay is T1, human IL-23. The assay is described as follows: kinetic ELISA, soluble polypeptide; kinetic ELISA.
B13 yielded a dissociation constant Kd of 7000 pM.

A further assay addresses T1, human IL-23. The assay is described as follows: equilibrium ELISA, soluble polypeptide.
As to B3, the Kd was 210 pM.

B4 returned a dissociation constant Kd of 310 pM.

B5 showed a Kd of 230 pM. This Kd and that of the molecule before are within 1.5-fold of each other.

As for B6, the equilibrium dissociation constant (Kd) worked out at 170 pM.

With B7, binding was characterised by a dissociation constant (Kd) of 350 pM.

Molecule B8 came in with a Kd of 170 pM.

In turn, B9 gave an equilibrium dissociation constant (Kd) of 1800 pM.

For B10, binding was put at a Kd of 290 pM.

B11 displayed a Kd of 1830 pM.

In the case of B12, the Kd amounted to 200 pM.

B14 came in with a dissociation constant (Kd) of 270 pM.

Turning to B18, the dissociation constant (Kd) was determined as 200 pM.

For the molecule B2, the Kd worked out at 100 pM.

B19 returned a dissociation constant (Kd) of 250 pM.

For B15, the Kd came out at 930 pM.

As for B16, the dissociation constant (Kd) amounted to 390 pM.

The next assay concerns the target T1, human IL-23. Kind of assay: equilibrium ELISA, soluble polypeptide; equilibrium ELISA.
Take B13: the dissociation constant (Kd) worked out at 3800 pM. This counts as single-digit nanomolar.

The next assay addresses T1, human IL-23. Kind of assay: phage-coated ELISA, clone displayed on phage.
B3 returned a dissociation constant Kd of 90 pM. In other words, the picomolar range.

Molecule B4 showed an equilibrium dissociation constant (Kd) of 120 pM.

Consider B6, for which the Kd worked out at 200 pM.

For the molecule B7, binding was characterised by a dissociation constant (Kd) of 470 pM.

Regarding B8, the equilibrium dissociation constant (Kd) was 70 pM.

B9 yielded a Kd of 1500 pM.

As to B10, the affinity, expressed as Kd, was 700 pM.

B11 returned a dissociation constant Kd of 160 pM. Compared with the last molecule, the Kd is about 4.4-fold lower.

The molecule B12 returned a Kd of 180 pM.

With B13, binding was put at a Kd of 3000 pM.

Take B14: the affinity, expressed as Kd, was 200 pM.

B18 displayed a dissociation constant Kd of 180 pM.

B2 displayed a Kd of 200 pM.

On to B19, for which the Kd stood at 210 pM. The Kd values of the last two molecules are within 1.5-fold of each other.

These data come from patent US20150266925A1 (COMPLIX, published 2015).
